The text below walks through data of the supplement of paper PMC9170038.

The subject of this data set is K4 kissing-loop RNA reporter. Briefly: apparent KD of K4 kissing-loop reporter; higher = weaker reporter binding. The following applies: Eterna round: R107. The procedure: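 RNA-MaP round R107: designed RNA switches with theophylline, tryptophan, arginine or FMN aptamers are transcribed on-chip within common flanks. They are titrated with a labelled K4 kissing-loop RNA reporter in RNA-MaP buffer (100 mM Tris pH 7.5, 80 mM KCl, 4 mM MgCl2), without ligand or with the indicated ligand. Median apparent KD per design.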

The mark [1] stands for this setting: input ligand: theophylline 20 uM.
[2] abbreviates: input ligand: tryptophan 2.4 mM.
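Also: bound reporter read as fluorescence of individual clusters on recovered sequencing chips by microscopy, with normalized cluster intensities fitted with a binding model.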

Consider “GGAUCCACCAGUGAUGUUGGAGAAAACUCGAAGGAUAUGACGAAAGUCAGAAGGUCGUAGACUGGACAAAGUCCGGUCGGAUCCA [FmnA 19 G30+C56]”, for which the “apparent KD of K4 kissing-loop reporter” value is, setting by setting: (input ligand: FMN 200 uM) 500 nM; (input ligand: arginine 13.2 mM) 541 nM; (input ligand: none) 539 nM; under setting [1], 490 nM; under setting [2], 461 nM.
Turning to “GUGCGGCUAGUGAUGUUGGUUGCGUGGGAAGGAGCGCAGAAACAUGCAGGUAGGUCGCCCACACCUCUGAAAGGAGGCUAAUUCA [Bisobi]”, the “apparent KD of K4 kissing-loop reporter” value (input ligand: FMN 200 uM) is 277 nM; the “apparent KD of K4 kissing-loop reporter” value (input ligand: arginine 13.2 mM) stood at 128 nM; the “apparent KD of K4 kissing-loop reporter” value (input ligand: none) turned out to be 163 nM; the “apparent KD of K4 kissing-loop reporter” value under setting [1] was determined as 213 nM; the “apparent KD of K4 kissing-loop reporter” value under setting [2] amounted to 134 nM.
For “GGGUUGAGCGGAAGGAGCGGCUGAACCAGUGAUGUUGGUUAAUCCAAGUGAUGUUGGAAAAGCCAGGUAGGUCGCCGCUUUAUCC [Same State Arg B GF 3]” the same measures were 979 nM, 533 nM, 1180 nM, 965 nM and 774 nM.
Take “GUCCACACUGCAGGAUAUGGAGAAAUAGCGAGGGAGCUUGGAAGCACGCCUCUGGCAGUGAUGUUGCCAGAAGGGCGGUGCGGCG [Dilazasole]”: the “apparent KD of K4 kissing-loop reporter” value was determined as 106 nM (input ligand: FMN 200 uM); 76.9 nM (input ligand: arginine 13.2 mM); 75.2 nM (input ligand: none); 76.9 nM under setting [1]; 80.8 nM under setting [2].
As for “CUGCCUCACUCGGCCGCCACUGUAUAAAUGUGACAGUGAUGUUGUCGUCGGAAAGGGCACUUAGGCAGGACCGGGAGUUUCAGGC [theeternabot_exclusion_KL_Trp_B_20]”, the “apparent KD of K4 kissing-loop reporter” value reads like this: (input ligand: FMN 200 uM) 837 nM; (input ligand: arginine 13.2 mM) 409 nM; (input ligand: none) 801 nM; under setting [1], 870 nM; under setting [2], 686 nM.
With “AUUAUCAAUUUAUUAUAUAACUUUUCAGAAGGAGCGUGGAAGUACACAGGUAGGUCGCUGAAUAUAGGACUAGUGAUGUUAGUUA [JR_Nu_SSArginiA_Sub024]”, the “apparent KD of K4 kissing-loop reporter” value reads like this: (input ligand: FMN 200 uM) 236 nM; (input ligand: arginine 13.2 mM) 221 nM; (input ligand: none) 266 nM; under setting [1], 298 nM; under setting [2], 248 nM.
As for “AUUGCGGCCGUUCUAUCACCAGGCGGAGAUACCAGAUGCCAGCAGAUCCCUUGGCAGCUCUGCACGAGAUCCAGUGAUGUUGGGU [theeternabot_exclusion_KL_Theo_A_9]”, the “apparent KD of K4 kissing-loop reporter” value is, setting by setting: (input ligand: FMN 200 uM) 319 nM; (input ligand: arginine 13.2 mM) 239 nM; (input ligand: none) 320 nM; under setting [1], 288 nM; under setting [2], 276 nM.
For “AAAUAGAUCAGUCACCCAGUGAUGUUGGAAGGAGCGUGCGAAAGCACAGGUAGGUCGCCAUAAUAAAAGUGGCUGAUCAAAAUAA” the same measures were 446 nM, 287 nM, 487 nM, 534 nM and 310 nM.
On to “ACACUAUCGUCAUAGACGGUAGUGAAAGCUGAGGAUAUGAGUGAUGUUAGAAGGUAGCAAGACUGUAUCGAAUAGAUACAGUCAA [FmnA 5 #K4BetweenAptamer #OpenEnded]”, for which the “apparent KD of K4 kissing-loop reporter” value (input ligand: FMN 200 uM) worked out at 227 nM; the “apparent KD of K4 kissing-loop reporter” value (input ligand: arginine 13.2 mM) was 111 nM; the “apparent KD of K4 kissing-loop reporter” value (input ligand: none) was 163 nM; the “apparent KD of K4 kissing-loop reporter” value under setting [1] came to 162 nM; the “apparent KD of K4 kissing-loop reporter” value under setting [2] was determined as 141 nM.
For “UGUCAUUGGUCGGCCGCCACUAGAAGGUCAAAGACCAUAGAGUGAUGUUCUGAGACGAAAGUCACUAGGACCGGGACCGAUGACU [TrypBS 6 #SwitchBubble #K4Middle]” the same measures were 462 nM, 385 nM, 1140 nM, 440 nM and 786 nM.
For “UUUGGAGUGGGAGGAUAUCCUAAUAUGGGUGAUGUUAGCGAUGUUGAAAGUGUAGUGAUGUUGUGCGGAGAAGGUCCAGUGUAGA [BDazzled - #14 - Exc. FMN B]” the same measures were 242 nM, 165 nM, 285 nM, 292 nM and 240 nM.
For “AAUAAUGGAGUGAUGUUCCAGUAAUGGGAUACCAGACAUGAAAAUGUCCCUUGGCAGCUCAAAGGUCUAGUGAUGUUAUAAAGAA [KL-SSTheo-A6]” the same measures were 475 nM, 510 nM, 554 nM, 401 nM and 377 nM.
For the sequence “AGACUACCACACUGUCAAUAGACAGUGAGGUAGGAUAUGCUGAAAAGCAGAAGGACCAGUGAUGUUGGUAGGUAGUCAAAAUAAA [FmnAX 11 #SwitchBubble #StaticStem #K4Early]”, the “apparent KD of K4 kissing-loop reporter” value reads like this: (input ligand: FMN 200 uM) 185 nM; (input ligand: arginine 13.2 mM) 112 nM; (input ligand: none) 84.8 nM; under setting [1], 128 nM; under setting [2], 74.9 nM.
For “AGCCAGCGUACAUCACUCUGGCUGCUGGAUACCAGCUCGGAAACGAGCCCUUGGCAGCCAGAACUUGCAGUGAUGUUGCAAGUAA [Design12]” the same measures were 460 nM, 276 nM, 402 nM, 458 nM and 345 nM.
For “UGACUGGACUGAAGGAGCGGGCGAGACAAAGUCUCGAACUCGUAGUGAUGUUAUGAAAUAACCCAGGUAGGUCGCAGUCUAGUCU” the same measures were 1130 nM, 684 nM, 892 nM, 868 nM and 789 nM.
For “UGUAUGUGAUUUGAUACCAGACCAGCUGGUGGUACCUGAGUGAUGUUCGGGAUGGUCUGGGUCCCUUGGCAGCAAAUCGCAUACU [KL-SSTheoB21]” the same measures were 295 nM, 175 nM, 254 nM, 212 nM and 212 nM.
Turning to “GGUAGCAUGGCGGCCGCCACUGAGGCCCUAUGCGAGUCCUCUACAACCUAGUGAUGUUAGGCGUCCAGGACCGGGCCAUGCUACC”, the “apparent KD of K4 kissing-loop reporter” value by setting is: (input ligand: FMN 200 uM) 95.7 nM; (input ligand: arginine 13.2 mM) 44.1 nM; (input ligand: none) 71.2 nM; under setting [1], 58.4 nM; under setting [2], 93 nM.
“CGCAGUGAUGUUGCGAGUAGCUACAGGGAAGGAGCGUGCUAGAGCACAGGUAGGUCGCCCACGCAGUGAUGUUGUGUUAAAGGGU [Exclusion Arginine A GF 12]”: the “apparent KD of K4 kissing-loop reporter” value is 141 nM (input ligand: FMN 200 uM); 116 nM (input ligand: arginine 13.2 mM); 123 nM (input ligand: none); 149 nM under setting [1]; 117 nM under setting [2].
For “GUAUGUGGAAACACGUACUUAUAUCCUCGACAGGAUAUGCGGAAACGCAGAAGGGUCGCCAACGAGUUUAUCCAGUGAUGUUGGA [Ex FMN A 15]” the same measures were 347 nM, 296 nM, 362 nM, 335 nM and 350 nM.
